Laboratory results reported in publication doi:10.1101/2020.08.05.237438 (bioRxiv, 2020).

Legend:
[1] = target: recombinant caseinolytic protease ClpP1 of Leptospira interrogans (L. interrogans serovar Copenhageni, UniProt Q72SG6 1-198); test: dynamic light scattering
[2] = target: recombinant ClpP1 S98A active-site mutant of Leptospira interrogans (L. interrogans serovar Copenhageni, UniProt Q72SG6 1-198, S98A); test: dynamic light scattering

binding result [1]	binding result [2]	Binder
binds	–	recombinant ClpP2 S97A active-site mutant of Leptospira interrogans (enzyme, L. interrogans serovar Copenhageni, UniProt Q72R01 1-197, looked up) MPETEKIAEVFEELTGSKISKNFLDHRKIFLWGPVTDESSKDLVGKLLYLEMKDPGKKITFYINSPGGVVTSGMTVFDTIKMISSPVHTVCMGMAAAMGSVLLAAGTKGERSIWPNGKVMIHQPSIGGQIVAPATDLKIHAEEILKTKTKLNQILADACGHPISKLEEDTDRDYYMDAEEAIKYGIVDKLATKIDFN
binds	binds	recombinant caseinolytic protease ClpP2 of Leptospira interrogans (enzyme, L. interrogans serovar Copenhageni, UniProt Q72R01 1-197, looked up) MPETEKIAEVFEELTGSKISKNFLDHRKIFLWGPVTDESSKDLVGKLLYLEMKDPGKKITFYINSPGGVVTSGMTVFDTIKMISSPVHTVCMGMAASMGSVLLAAGTKGERSIWPNGKVMIHQPSIGGQIVAPATDLKIHAEEILKTKTKLNQILADACGHPISKLEEDTDRDYYMDAEEAIKYGIVDKLATKIDFN
